Four molecules from patent US20150184166A1 (Uinversity of Iowa Research Foundation, priority 2012, published 2015) can be followed below.

For one series, the target named is Ccr (Pseudomonas putida, UniProt H9N291). The series is described as follows: NAD(P)H:cytochrome c oxidoreductase (Ccr) activity. Format: biochemical, Pseudomonas putida CBB5. On the procedure:
NADH:cytochrome c oxidoreductase (cytochrome c reductase, Ccr) activity was determined as described by Ueda et al. (1972). A typical 1-mL reaction contained 300 μM NADH, 87 μM bovine cytochrome c (type III; Sigma), and 1-20 μg CBB5 protein (depending on purity) in 50 mM KPi buffer. The activity was determined by monitoring the increase in absorbance at 550 nm due to reduction of […] cytochrome c at 30° C. An extinction coefficient of 21,000 M^−1 cm^−1 for reduced minus oxidized cytochrome c was used for quantitating the activity. One unit of activity was defined as one μmol of cytochrome c reduced per minute.

Series [1] addresses T1, Ndm, two-subunit N-demethylase component purified from Pseudomonas putida CBB5 (UniProt H9N289).
T1 sequence 1: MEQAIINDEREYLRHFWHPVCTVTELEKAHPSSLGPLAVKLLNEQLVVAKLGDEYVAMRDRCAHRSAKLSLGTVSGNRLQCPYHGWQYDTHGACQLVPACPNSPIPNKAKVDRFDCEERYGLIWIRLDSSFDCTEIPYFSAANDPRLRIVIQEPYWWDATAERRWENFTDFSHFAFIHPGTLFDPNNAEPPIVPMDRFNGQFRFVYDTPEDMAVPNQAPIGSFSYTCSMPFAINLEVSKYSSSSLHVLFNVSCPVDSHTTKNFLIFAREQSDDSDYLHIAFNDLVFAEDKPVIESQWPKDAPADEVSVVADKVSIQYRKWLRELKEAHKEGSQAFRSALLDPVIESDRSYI
T1 sequence 2: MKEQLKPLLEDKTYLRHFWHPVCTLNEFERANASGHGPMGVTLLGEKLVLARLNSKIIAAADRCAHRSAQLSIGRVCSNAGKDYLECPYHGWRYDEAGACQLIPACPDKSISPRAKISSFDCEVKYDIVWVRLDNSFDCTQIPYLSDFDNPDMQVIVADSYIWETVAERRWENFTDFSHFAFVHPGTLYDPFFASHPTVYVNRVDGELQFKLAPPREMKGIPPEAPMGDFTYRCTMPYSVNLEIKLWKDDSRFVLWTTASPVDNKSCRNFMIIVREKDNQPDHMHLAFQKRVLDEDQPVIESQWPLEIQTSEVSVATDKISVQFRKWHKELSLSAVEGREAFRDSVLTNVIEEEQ

The target of series [2] is T2, NdmB, 35 kDa subunit of N-demethylase Ndm purified from Pseudomonas putida CBB5 (Pseudomonas putida CBB5, UniProt H9N290 1-355).
T2 construct: Native protein purified from CBB5; Rieske [2Fe-2S] non-heme iron oxygenase; also called 35 kDa-protein
T2 sequence (looked up): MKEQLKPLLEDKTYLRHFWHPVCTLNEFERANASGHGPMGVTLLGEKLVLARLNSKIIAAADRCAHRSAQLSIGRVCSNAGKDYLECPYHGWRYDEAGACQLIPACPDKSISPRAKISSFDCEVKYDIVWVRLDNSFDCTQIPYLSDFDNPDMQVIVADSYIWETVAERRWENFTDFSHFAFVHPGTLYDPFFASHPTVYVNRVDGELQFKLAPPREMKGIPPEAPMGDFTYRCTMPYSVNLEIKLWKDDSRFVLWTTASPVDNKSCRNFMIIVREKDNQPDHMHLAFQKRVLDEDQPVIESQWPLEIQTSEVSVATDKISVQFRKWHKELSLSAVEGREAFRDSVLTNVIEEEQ
The series is described as follows: gel filtration of purified native Ndm (single symmetric peak, about 240 kDa), fractions checked by SDS-PAGE.

Substrate in series [3]: Cn1c(=O)c2[nH]cnc2n(C)c1=O
The series is described as follows: Kinetic parameters of NdmA-His6 with His6-NdmD. The series is classed as biochemical, Pseudomonas putida CBB5. Conditions: other: NdmA-His6 plus His6-NdmD, pH 7.5, 30° C. On the procedure: Methylxanthine N-demethylase activity assay contained, in 1-ml total volume, 0.5 mM methylxanthine, 1 mM NADH, 50 μM Fe(NH4)2(SO4)2, and an appropriate amount of NdmA-His6 or NdmB-His6 (7.4 μg-2.5 mg protein depending on substrate specificity) in 50 mM KPi buffer (pH 7.5). Approximately 4 U of partially purified reductase, prepared as described previously (Summers et al., 2011) or 59 U of purified His6-NdmD was added to reaction mixture. Catalase from bovine liver (4,000 U) was also added to reactions containing His6-NdmD. The reaction mixture was incubated at 30° C. with 300 rpm shaking on an incubating microplate shaker (VWR, Radnor, Pa.). Periodically, a small aliquot was sampled from the reaction mixture and mixed with equal volume of acetonitrile for quantifying concentrations of methylxanthines and N-demethylated products by HPLC. One unit of N-demethylase activity was defined as the consumption of one […] methylxanthine per minute.
Apparent kinetic parameters of NdmA-His6 and NdmB-His6 were determined by measuring the initial rate of disappearance (vo) of methylxanthines in 50 mM KPi buffer (pH 7.5) at 30° C. […] At 1, 5, 10, and 15 minutes, samples were removed from the reaction mixtures to quantitate substrate concentrations by HPLC. […] The apparent kinetic parameters were determined from Michaelis-Menten plots of vo against [S] fitted with the equation

The target of a further series is T3, NdmA-His6, H9N289.
T3 chain: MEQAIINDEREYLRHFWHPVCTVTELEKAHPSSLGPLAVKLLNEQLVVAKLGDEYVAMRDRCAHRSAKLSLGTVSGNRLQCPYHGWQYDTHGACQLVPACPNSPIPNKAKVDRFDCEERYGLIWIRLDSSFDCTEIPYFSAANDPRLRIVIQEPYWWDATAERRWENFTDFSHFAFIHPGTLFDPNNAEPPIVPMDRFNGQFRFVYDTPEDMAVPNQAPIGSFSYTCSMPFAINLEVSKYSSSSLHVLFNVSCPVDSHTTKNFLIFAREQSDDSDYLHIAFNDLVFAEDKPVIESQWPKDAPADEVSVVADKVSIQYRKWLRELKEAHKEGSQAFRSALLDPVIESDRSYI

The next series concerns the target T4, NdmB-His6, H9N290.
T4 chain: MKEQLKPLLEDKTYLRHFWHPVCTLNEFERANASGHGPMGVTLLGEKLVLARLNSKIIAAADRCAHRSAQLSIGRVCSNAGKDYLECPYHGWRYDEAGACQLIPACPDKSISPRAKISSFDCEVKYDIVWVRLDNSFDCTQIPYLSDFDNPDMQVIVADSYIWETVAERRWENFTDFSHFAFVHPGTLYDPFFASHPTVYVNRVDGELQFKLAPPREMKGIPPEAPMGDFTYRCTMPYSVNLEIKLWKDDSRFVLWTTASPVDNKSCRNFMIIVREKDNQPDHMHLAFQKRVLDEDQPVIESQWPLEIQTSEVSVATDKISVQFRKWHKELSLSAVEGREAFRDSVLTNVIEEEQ

The term Km denotes the concentration of substrate that gives half-maximal velocity.

In the case of `NC(=O)C1=CN([C@@H]2O[C@H](COP(=O)(O)OP(=O)(O)OC[C@H]3O[C@@H](n4cnc5c(N)ncnc54)[C@H](OP(=O)(O)O)[C@@H]3O)[C@@H](O)[C@H]2O)C=CC1` [NADPH], the “Ccr activity relative to that with NADH” value on Ccr stood at 22%. “Ccr, partially purified cytochrome c reductase component of Pseudomonas putida CBB5”: the N-demethylase activity result in series [1] is given as “No N-demethylase activity was observed when purified Ndm was assayed without the Ccr fraction”.

B1: NdmA, 40 kDa subunit of N-demethylase Ndm purified from Pseudomonas putida CBB5 (enzyme, UniProt H9N289 1-351, looked up)
chain: MEQAIINDEREYLRHFWHPVCTVTELEKAHPSSLGPLAVKLLNEQLVVAKLGDEYVAMRDRCAHRSAKLSLGTVSGNRLQCPYHGWQYDTHGACQLVPACPNSPIPNKAKVDRFDCEERYGLIWIRLDSSFDCTEIPYFSAANDPRLRIVIQEPYWWDATAERRWENFTDFSHFAFIHPGTLFDPNNAEPPIVPMDRFNGQFRFVYDTPEDMAVPNQAPIGSFSYTCSMPFAINLEVSKYSSSSLHVLFNVSCPVDSHTTKNFLIFAREQSDDSDYLHIAFNDLVFAEDKPVIESQWPKDAPADEVSVVADKVSIQYRKWLRELKEAHKEGSQAFRSALLDPVIESDRSYI
notes: Native protein purified from CBB5; Rieske [2Fe-2S] non-heme iron oxygenase; also called 40 kDa-protein
Take B1: the binding result in series [2] is listed as “binds”. Also, the Km in series [3] is 91. μM.

B2: His6-NdmD (protein)
chain: HHHHHHSSGLVPRGSHMNKLDVNQWFPIATTEDLPKRHVFHATLLGQEMAIWRDDSGSVNAWENRCPHRGLRLTLGANTGNELRCQYHGWTYESGTGGCTFVPAHRDAPPPNAARVNTFPVREKHGFIWTTLGQPPGEPISILDDAQLVNAVKTNLHSVVIDADIDGVVSVLRQNLSAFIDVFGAASAEDLHLKSMLQDRGILVTRSGSIAIHFYMQRSTISKCVVHAQVLTPGRPGYELQKNYSYAMNVIRRAAEAVATDLISITDISDQTIEKLEVVRENMTKAPPTHYICEVVTRTQETGDINSYWLKPIGYPLPAFSPGMHISITTPEGSIRQYSLVNGPDERESFIIGVKKEIQSRGGSRSMHEDVKVGTQLKVTLPRNGFPLVQTRKHPILVAGGIGITPILCMAQALDQQGSSYEIHYFARAFEHVPFQDRLTALGDRLNVHLGLGPDETRAKLPDIMEIHNAQDVDVYTCGPQPMIETVSAVALAHGIAEESIRFEFFSKKNDVPVSDEEYEVELKKTGQIFTVSPGSTLLQACLDNDVRIEASCEQGVCGTCITPVVSGDLEHHDTYLSKKERESGKWIMPCVSRCKSKKIVLDL
On to B2, for which, in the series with NdmA-His6, H9N289, the “N-demethylation of caffeine to theobromine (HPLC)” value is “when NdmA-His6 was incubated with His6-NdmD, caffeine, NADH, and exogenous Fe^2+, caffeine was stoichiometrically demethylated at N1 to theobromine”. Moreover, the “N-demethylation of theobromine to 7-methylxanthine (HPLC)” value with NdmB-His6, H9N290 was “NdmB-His6 with His6-NdmD, theobromine, NADH, and Fe^2+ resulted in stoichiometric demethylation at N3 of theobromine to 7-methylxanthine”.
